Bridge positions count the residues as written; N and C are the ends. Ends that are not written are not given here.
Experiments:
[1] = molecular target: nine affinity purified ACA antibodies; test: competitive ELISA on CL/β2-GPI plates, peptide monomer 1 mg/mL; average of nine ACA
ACA-6501 aPL antibody [2] = test: competitive ELISA on CL/β2-GPI plates, peptide monomer 1 mg/mL, affinity-purified ACA
ACA-6626 aPL antibody [3] = test: as above
ACA-6638 aPL antibody [4] = test: as above
ACA-6641 aPL antibody [5] = test: as above
ACA-6644 aPL antibody [6] = test: as above
ACA-6701 aPL antibody [7] = test: as above
ACA-6903 aPL antibody [8] = test: as above
ACA-7004 aPL antibody [9] = test: as above
ACA-7005 aPL antibody [10] = test: as above
[11] = molecular target: nine affinity purified ACA antibodies; test: competitive ELISA on CL/β2-GPI plates, peptide monomer 200 µg/mL; average of nine ACA
ACA-6501 aPL antibody [12] = test: competitive ELISA on CL/β2-GPI plates, peptide monomer 200 µg/mL, affinity-purified ACA
ACA-6626 aPL antibody [13] = test: as above
ACA-6638 aPL antibody [14] = test: as above
ACA-6641 aPL antibody [15] = test: as above
ACA-6644 aPL antibody [16] = test: as above
ACA-6701 aPL antibody [17] = test: as above
ACA-6903 aPL antibody [18] = test: as above
ACA-7004 aPL antibody [19] = test: as above
ACA-7005 aPL antibody [20] = test: as above
ACA-6701 aPL antibody [21] = test: fluorescence polarization
ACA-6701 aPL antibody [22] = test: competitive fluorescence polarization (cFP), displacement of CB2*-F

percent inhibition (Ave.) [1] [%]	percent inhibition (ACA-6501 aPL antibody [2]) [%]	percent inhibition (ACA-6626 aPL antibody [3]) [%]	percent inhibition (ACA-6638 aPL antibody [4]) [%]	percent inhibition (ACA-6641 aPL antibody [5]) [%]	percent inhibition (ACA-6644 aPL antibody [6]) [%]	percent inhibition (ACA-6701 aPL antibody [7]) [%]	percent inhibition (ACA-6903 aPL antibody [8]) [%]	percent inhibition (ACA-7004 aPL antibody [9]) [%]	percent inhibition (ACA-7005 aPL antibody [10]) [%]	Ki (ACA-6701 aPL antibody [22]) [nM]	Binder	also measured
52	41	43	65	43	37	96	51	72	23	–	AGPLSDPGYVRNIFHPG [peptide ACA-6701/3B1 …]	–
–	–	–	–	–	–	–	–	–	–	–	GILALDYVGG [peptide ACA-6644/CBf …]	percent inhibition (Ave.) [11]: 39%; percent inhibition (ACA-6501 aPL antibody [12]): 37%; percent inhibition (ACA-6626 aPL antibody [13]): 37%; percent inhibition (ACA-6638 aPL antibody [14]): 60%; percent inhibition (ACA-6641 aPL antibody [15]): 28%; percent inhibition (ACA-6644 aPL antibody [16]): 18%; percent inhibition (ACA-6701 aPL antibody [17]): 22%; percent inhibition (ACA-6903 aPL antibody [18]): 43%; percent inhibition (ACA-7004 aPL antibody [19]): 54%; percent inhibition (ACA-7005 aPL antibody [20]): 57%
65	60	76	87	52	55	51	69	87	47	313	AGPCLLLAPDRCPG [peptide ACA-6501/3B10 … (monomer)]	fold weaker binding against CB2* (ACA-6701 aPL antibody [21]): 9 fold
–	–	–	–	–	–	–	–	–	–	35	GPCILLARDRCG (disulfide 3-11 (inferred)) [CB2* …]	fold improvement in binding against CB2*-F (ACA-6701 aPL antibody [21]): 14 fold

Source: US6410775
